Results as given in patent EP4574844A1 (Numab Therapeutics AG, dated 2025).

B1: PRO3851 (bispecific antibody, human IgG1, kappa, L234A L235A)
heavy 1: not shown
heavy 2: QVQLQESGGGLVQPGGSLRLSCAASAYTISRNSMGWFRQAPGKGLEGVAAIESDGSTSYSDSVKGRFTISLDNSKNTLYLEMNSLRAEDTAVYYCAAPKVGLGPRTALGHLAFMTLPALNYWGQGTLVTVSSGGGGSGGGGSGGGGSGGGGSQVQLQESGGGLVQPGGSLRLSCAASAYTISRNSMGWFRQAPGKGLEGVAAIESDGSTSYSDSVKGRFTISLDNSKNTLYLEMNSLRAEDTAVYYCAAPKVGLGPRTALGHLAFMTLPALNYWGQGTLVTVSSDKTHTCPPCPAPEAAGGPSVFLFPPKPKDTLMISRTPEVTCVVVDVSHEDPEVKFNWYVDGVEVHNAKTKPREEQYNSTYRVVSVLTVLHQDWLNGKEYKCKVSNKALPAPIEKTISKAKGQPREPQVCTLPPSRDELTKNQVSLSCAVKGFYPSDIAVEWESNGQPENNYKTTPPVLDSDGSFFLVSKLTVDKSRWQQGNVFSCSVMHEALHNHYTQKSLSLSPG
light: DIQMTQSPSSVSASVGDRVTITCRASQGISRWLAWYQQKPGKAPKLLIYAASSLQSGVPSRFSGSGSGTDFTLTISSLQPEDFATYYCQQTVSFPITFGGGTKVEIKRTVAAPSVFIFPPSDEQLKSGTASVVCLLNNFYPREAKVQWKVDNALQSGNSQESVTEQDSKDSTYSLSSTLTLSKADYEKHKVYACEVTHQGLSSPVTKSFNRGEC
B2: PRO4672 (antibody)
chain 1: DVQMTQSPSSLSASVGDRVTITCQASQSISSWVSWYQQKPGKPPKLLIYRGGYLESGVPSRFSASGSGTDFTLTISSLQPEDFATYYCQSTDSSTYGGAFGCGTKVTVLGGGGGSGGGGSGGGGSGGGGSQQVVESGGGLVQPGGSLRLSCAVSGIDLNSYAMTWVRQAPGKCLEWIGYIGSASSTYYASWASGRFTISKDNSKNTVYLQMNSLRAEDSAVYFCARGSTYINIWGQGTLVKVSSEPKSSDKTHTCPPCPAPELLGGPSVFLFPPKPKDTLMISRTPEVTCVVVDVSHEDPEVKFNWYVDGVEVHNAKTKPREEQYNSTYRVVSVLTVLHQDWLNGKEYKCKVSNKALPAPIEKTISKAKGQPREPQVYTLPPCREEMTKNQVSLSCAVKGFYPSDIAVEWESNGQPENNYKTTPPVLDSDGSFFLVSKLTVDKSRWQQGNVFSCSVMHEALHNHYTQKSLSLSPGKGGGGSGGGGSDVQMTQSPSSLSASVGDRVTITCQASQSIGSNLAWYQQKPGKPPKLLIYKGGTLESGVPSRFSGSGSGTDFTLTISSLQPEDFATYYCQSTAGSSRSGNYGYVFGCGTKVTVLGGGGGSGGGGSGGGGSGGGGSQQLVESGGGLVQPGGSLRLSCAASGFSFTNNYYMCWVRQAPGKCLEWIACMLVGAWGNTYYASWANGRFTISKDNSKNTVYLQMNSLRAEDSAVYFCARARDYTWTLGGDPETSGFNLWGQGTLVKVSS
chain 2: not shown
notes: trispecific anti-PDL1 x CD47 x LILRB2, (scFv)2-Fc-(scFv)2, 37-20-B03-based PDL1-BD
B3: PRO5052 (antibody)
chain 1: B2 chain 1
chain 2: not shown
notes: trispecific anti-PDL1 x CD47 x LILRB2, (scFv)2-Fc-(scFv)2; also called PRO4672 with 33-03-G02-based PDL1-BD
B4: PRO5055 (antibody, human IgG1, kappa)
chain: B2 chain 1
heavy: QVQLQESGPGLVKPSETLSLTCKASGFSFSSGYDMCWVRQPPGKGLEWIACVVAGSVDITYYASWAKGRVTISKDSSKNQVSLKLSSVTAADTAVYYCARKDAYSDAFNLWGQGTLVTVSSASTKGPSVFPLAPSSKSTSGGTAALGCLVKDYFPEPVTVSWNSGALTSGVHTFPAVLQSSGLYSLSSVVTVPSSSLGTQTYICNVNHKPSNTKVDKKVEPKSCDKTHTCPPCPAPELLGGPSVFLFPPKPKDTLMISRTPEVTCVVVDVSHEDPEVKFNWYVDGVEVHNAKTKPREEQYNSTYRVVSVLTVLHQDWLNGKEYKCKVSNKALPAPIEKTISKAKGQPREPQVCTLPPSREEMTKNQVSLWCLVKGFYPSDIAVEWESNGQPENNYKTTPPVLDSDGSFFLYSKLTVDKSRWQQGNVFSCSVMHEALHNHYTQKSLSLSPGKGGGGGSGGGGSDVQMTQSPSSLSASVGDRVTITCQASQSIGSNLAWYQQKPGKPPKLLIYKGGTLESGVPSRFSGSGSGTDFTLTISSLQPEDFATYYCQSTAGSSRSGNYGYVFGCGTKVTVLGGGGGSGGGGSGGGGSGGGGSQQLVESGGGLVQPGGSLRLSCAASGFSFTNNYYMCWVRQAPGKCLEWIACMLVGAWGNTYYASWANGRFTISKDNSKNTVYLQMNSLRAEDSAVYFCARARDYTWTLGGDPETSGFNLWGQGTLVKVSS
light: DIQMTQSPSSLSASVGDRVTITCQASQSINDYLAWYQQKPGKAPKLLIYKGGTLASGVPSRFSGSGSGTDFTLTISSLQPEDFATYYCQQGYIITDIDNVFGQGTKVEIKRTVAAPSVFIFPPSDEQLKSGTASVVCLLNNFYPREAKVQWKVDNALQSGNSQESVTEQDSKDSTYSLSSTLTLSKADYEKHKVYACEVTHQGLSSPVTKSFNRGEC
notes: trispecific anti-PDL1 x CD47 x LILRB2; PDL1-BD as Fab; also called PRO4687 with 33-03-G02-based PDL1-BD
B5: PRO3744 (scFv)
scFv: DVQMTQSPSSLSASVGDRVTITCQASQSIGSNLAWYQQKPGKPPKLLIYKGGTLESGVPSRFSGSGSGTDFTLTISSLQPEDFATYYCQSTAGSSRSGNYGYVFGCGTKVTVLGGGGGSGGGGSGGGGSGGGGSQQLVESGGGLVQPGGSLRLSCAASGFSFTNNYYMCWVRQAPGKCLEWIACMLVGAWGNTYYASWANGRFTISKDNSKNTVYLQMNSLRAEDSAVYFCARARDYTWTLGGDPETSGFNLWGQGTLVKVSS
notes: anti-LILRB2 scFv; also called 68-18-E11-sc07
B6: PRO3696 (scFv)
scFv: DVQMTQSPSSLSASVGDRVTITCQASQSIGLNLAWYQQKPGKPPKLLIYAGGYLASGVSSRFSGSGSGTDFTLTISSLQPEDFATYYCQSTYDGSSFVFAFGTGTKVTVLGGGGGSGGGGSGGGGSGGGGSQEQLVESGGGLVQPGGSLRLSCAASGFSFSSSSYMCWVRQAPGKGLEWIACMVTGSSDDTDYASWAKGRFTISKDNSKNTVYLQMNSLRAEDSAVYFCARAGSAPLWGQGTLVKVSS
notes: anti-LILRB2 scFv; also called 69-01-E02-sc06

Tests used:
[1] = molecular target: T1, human CD47 on the cell surface (human, UniProt Q08722 19-323); experiment: cell-based or functional assay
[2] = molecular target: T1, human CD47 on the cell surface; experiment: cell-based or functional assay; remark: listed apart in the source
[3] = molecular target: T1, human CD47 on the cell surface; experiment: cell-based or functional assay; remark: listed apart in the source
[4] = molecular target: T2, human LILRB2 on the cell surface (human, UniProt Q8N423 22-597); experiment: cell-based or functional assay
T2 sequence (Q8N423 22-597): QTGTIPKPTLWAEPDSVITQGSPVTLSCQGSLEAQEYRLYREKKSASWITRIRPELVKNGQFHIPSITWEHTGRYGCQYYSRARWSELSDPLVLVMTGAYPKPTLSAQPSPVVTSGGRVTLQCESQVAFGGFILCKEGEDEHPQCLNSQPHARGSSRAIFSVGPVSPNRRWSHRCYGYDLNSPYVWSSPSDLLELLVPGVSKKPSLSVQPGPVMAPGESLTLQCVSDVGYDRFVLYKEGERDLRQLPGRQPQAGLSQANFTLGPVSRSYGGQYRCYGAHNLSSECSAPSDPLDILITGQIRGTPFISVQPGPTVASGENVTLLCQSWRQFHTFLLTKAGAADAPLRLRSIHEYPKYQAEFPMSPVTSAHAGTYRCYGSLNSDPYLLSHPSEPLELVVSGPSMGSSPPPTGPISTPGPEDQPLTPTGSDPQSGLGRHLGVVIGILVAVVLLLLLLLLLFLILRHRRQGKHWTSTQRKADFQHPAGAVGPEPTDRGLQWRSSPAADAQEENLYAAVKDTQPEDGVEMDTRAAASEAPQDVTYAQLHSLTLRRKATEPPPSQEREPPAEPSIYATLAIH

[5] = molecular target: T2, human LILRB2 on the cell surface; experiment: cell-based or functional assay; remark: listed apart in the source
[6] = molecular target: human PD-L1 on the cell surface (human, UniProt Q9NZQ7 19-290); experiment: cell-based or functional assay
recombinant human CD47 = recombinant human CD47 (human, UniProt Q08722 19-139, limits assumed); experiment: SPR, antigen immobilised, antibody as analyte
recombinant human PDL1 = molecular target: T3, recombinant human PDL1 (human, UniProt Q9NZQ7 19-238, limits assumed); experiment: SPR, antigen immobilised, antibody as analyte
T3 construct: SPR antigen; also called CD274; B7-H1

recombinant human LILRB2 [7] = molecular target: T4, recombinant human LILRB2 (human, UniProt Q8N423 22-460, limits assumed); experiment: SPR, antibody captured by anti-framework IgG, antigen as analyte (without avidity)
T4 construct: also called ILT4
T4 sequence (Q8N423 22-460 limits assumed): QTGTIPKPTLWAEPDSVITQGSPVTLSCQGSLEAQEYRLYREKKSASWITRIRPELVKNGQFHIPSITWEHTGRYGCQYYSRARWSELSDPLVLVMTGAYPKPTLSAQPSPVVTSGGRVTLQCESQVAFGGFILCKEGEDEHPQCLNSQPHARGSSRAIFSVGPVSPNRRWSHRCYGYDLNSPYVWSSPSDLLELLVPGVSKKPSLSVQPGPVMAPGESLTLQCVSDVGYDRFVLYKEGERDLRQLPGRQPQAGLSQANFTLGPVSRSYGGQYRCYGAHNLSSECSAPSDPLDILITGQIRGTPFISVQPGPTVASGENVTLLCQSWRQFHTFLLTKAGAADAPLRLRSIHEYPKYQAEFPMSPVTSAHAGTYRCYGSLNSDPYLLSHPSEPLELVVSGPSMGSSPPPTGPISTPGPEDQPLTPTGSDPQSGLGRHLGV

[8] = molecular target: T5, recombinant cynomolgus PDL1 (cynomolgus monkey, UniProt G7PSE7 19-238); experiment: SPR, antigen immobilised, antibody as analyte
T5 construct: also called cynom; PDL1
T5 sequence (G7PSE7 entry or part of it): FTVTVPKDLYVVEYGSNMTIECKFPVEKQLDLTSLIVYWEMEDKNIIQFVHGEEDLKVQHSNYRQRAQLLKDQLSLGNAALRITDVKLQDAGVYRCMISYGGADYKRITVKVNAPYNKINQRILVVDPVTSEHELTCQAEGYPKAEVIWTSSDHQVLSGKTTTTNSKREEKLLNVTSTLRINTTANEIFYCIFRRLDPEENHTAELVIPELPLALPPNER

[9] = molecular target: T6, recombinant cynomolgus CD47 (cynomolgus monkey, UniProt A0A2K5X523 19-139); experiment: SPR, antigen immobilised, antibody as analyte
T6 construct: also called cynom; CD47

recombinant human LILRB2 [10] = molecular target: T4, recombinant human LILRB2; experiment: SPR, LILRB2 immobilised, scFv as analyte
[11] = molecular target: T2, human LILRB2 on the cell surface; experiment: flow cytometry, CHO K1 cells expressing human LILRB2
[12] = molecular target: T2, human LILRB2 on the cell surface; experiment: flow cytometry, CHO cells expressing LILRB2; competitor HLA-G tetramer
[13] = molecular target: T2, human LILRB2 on the cell surface; experiment: flow cytometry, CHO cells expressing LILRB2; competitor HLA-A0301 dextramer
[14] = molecular target: T2, human LILRB2 on the cell surface; experiment: flow cytometry, CHO cells expressing LILRB2; competitor HLA-G tetramer; reference PRO2518

CD47 driven EC50 [nM], phagocytosis of Nalm6 cells [1] [nM] | CD47 driven EC50 [nM], phagocytosis of A375 cells [2] [nM] | CD47 driven EC50 [nM], phagocytosis of H292 cells [3] [nM] | CD47 driven EC50 [nM], phagocytosis of RBCs [3] [nM] | CD86 EC50 [nM], re-polarization of M2 macrophages [4] [nM] | CD163 EC50 [nM], re-polarization of M2 macrophages [4] [nM] | CD206 EC50 [nM], re-polarization of M2 macrophages [4] [nM] | IL-1β EC50 [nM], LPS-driven cytokine secretion [5] [nM] | IL-6 EC50 [nM], LPS-driven cytokine secretion [5] [nM] | TNF-α EC50 [nM], LPS-driven cytokine secretion [5] [nM] | PD-L1 driven EC50 [nM], phagocytosis of H292 cells [6] [nM] | Kd (recombinant human CD47) [nM] | koff (recombinant human CD47) [s⁻¹] | kon (recombinant human CD47) [M⁻¹ s⁻¹] | Kd (recombinant human PDL1) [nM] | koff (recombinant human PDL1) [s⁻¹] | kon (recombinant human PDL1) [M⁻¹ s⁻¹] | Kd (recombinant human LILRB2 [7]) [nM] | koff (recombinant human LILRB2 [7]) [s⁻¹] | kon (recombinant human LILRB2 [7]) [M⁻¹ s⁻¹] | further results | Binder
0.99 | 0.9 | 1.82 | 3 | – | – | – | – | – | – | – | – | – | – | – | – | – | – | – | – | – | B1
15.3 | – | 8.32 | 39.4 | 0.079 | 0.067 | 0.12 | 0.096 | 0.078 | 0.123 | 0.32 | 57.2 | 0.0256 | 448000 | 0.12 | 0.000126 | 1.05e+06 | 0.37 | 8.9e-05 | 240000 | – | B2
– | 19.3 | 10.9 | 39.8 | 0.082 | 0.073 | 0.134 | 0.082 | 0.077 | 0.117 | 0.2 | 34 | 0.022 | 660000 | 0.013 | 2.9e-05 | 2.3e+06 | 0.19 | 5.4e-05 | 290000 | Kd [8]: 0.012 nM; Kd [9]: 32 nM | B3
– | 12.1 | 10.9 | 44.6 | 0.085 | 0.058 | 0.128 | 0.0705 | 0.063 | 0.141 | 0.19 | 21 | 0.011 | 510000 | 0.016 | 3.3e-05 | 2.2e+06 | 0.35 | 9.2e-05 | 260000 | Kd [8]: 0.0084 nM; Kd [9]: 21 nM | B4
– | – | – | – | – | – | – | – | – | – | – | – | – | – | – | – | – | – | – | – | Kd (recombinant human LILRB2 [10]): 0.148 nM; koff (recombinant human LILRB2 [10]): 0.000114 s⁻¹; kon (recombinant human LILRB2 [10]): 771000 M⁻¹ s⁻¹; EC50 [11]: 0.881 nM; IC50 [12]: 0.973 nM; IC50 [13]: 0.893 nM; Rel. max. inhibition % (rel. to J-19) [14]: 99.1% | B5
– | – | – | – | – | – | – | – | – | – | – | – | – | – | – | – | – | – | – | – | Kd (recombinant human LILRB2 [10]): 0.226 nM; koff (recombinant human LILRB2 [10]): 0.000166 s⁻¹; kon (recombinant human LILRB2 [10]): 736000 M⁻¹ s⁻¹; EC50 [11]: 0.796 nM; IC50 [12]: 1.08 nM; IC50 [13]: 0.867 nM; Rel. max. inhibition % (rel. to J-19) [14]: 98.4% | B6
